Source: patent publication US20060234285A1 (Human Genome Sciences, published 2006)

Key:
[1] = biological target: T1, TNF-gamma-beta, full length, on transfected cells (human, UniProt O95150 1-251); experiment: flow cytometry on HEK293F cells expressing full length TNF-gamma-beta
T1 construct: whole, on cells; also called TL1β
T1 sequence (looked up): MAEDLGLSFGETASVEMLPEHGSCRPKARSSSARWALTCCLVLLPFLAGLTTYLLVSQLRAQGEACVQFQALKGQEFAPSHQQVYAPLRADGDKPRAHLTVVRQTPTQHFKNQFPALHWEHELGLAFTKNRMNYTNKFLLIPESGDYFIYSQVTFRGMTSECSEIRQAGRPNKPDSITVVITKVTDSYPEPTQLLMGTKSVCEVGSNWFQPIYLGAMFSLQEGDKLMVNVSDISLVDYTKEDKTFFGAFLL
Experimental: One million cells, in 0.1 ml of FACS buffer (PBS, 0.1% BSA, 0.1% NaN₃), were incubated with 0.1-1 microgram of protein or antibody at RT for 15 min. The cells were washed with 3 ml of FACS buffer, reacted with biotinylated primary antibody, and stained with PE-conjugated secondary antibody at RT for 15 min. Cells were then washed again, resuspended in 0.5 microgram/ml of propidium iodide, and live cells were gated and analyzed on a FACScan using the CellQuest software (BD Biosciences).

[2] = biological target: T2, Human LIGHT, full length, on cells (stably transfected 293F cells; endogenous on activated human T cells) (human, UniProt O43557 1-240); experiment: flow cytometry on 293 cells overexpressing LIGHT
T2 construct: whole, on cells; also called LIGHT-transfectants; cell membrane LIGHT
T2 sequence (O43557 whole entry): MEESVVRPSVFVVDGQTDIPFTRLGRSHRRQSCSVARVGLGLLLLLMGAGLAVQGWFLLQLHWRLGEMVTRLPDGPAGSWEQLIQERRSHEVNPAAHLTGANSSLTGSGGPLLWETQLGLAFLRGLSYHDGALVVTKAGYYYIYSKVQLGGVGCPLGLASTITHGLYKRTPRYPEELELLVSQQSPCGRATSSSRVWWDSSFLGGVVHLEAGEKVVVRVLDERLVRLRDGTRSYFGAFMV
Experimental: This was tested on 293 cells overexpressing LIGHT according to flow cytometry.

[3] = biological target: T3, Murine FasL on transfected murine L929 cells (murine, UniProt P41047 1-279); experiment: cell-based or functional assay
T3 sequence (looked up): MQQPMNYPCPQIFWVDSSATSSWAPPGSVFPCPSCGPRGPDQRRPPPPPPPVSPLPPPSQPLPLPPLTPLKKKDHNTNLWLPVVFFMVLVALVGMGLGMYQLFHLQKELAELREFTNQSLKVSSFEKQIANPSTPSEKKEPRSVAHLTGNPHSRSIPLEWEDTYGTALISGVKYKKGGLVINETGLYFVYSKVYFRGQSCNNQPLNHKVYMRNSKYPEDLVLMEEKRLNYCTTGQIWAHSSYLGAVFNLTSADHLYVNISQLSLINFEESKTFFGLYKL

[4] = biological target: T4, Soluble human FLAG-FasL (synthesized at HGS) (human, UniProt P48023 130-281, limits assumed); experiment: cell-based or functional assay
T4 sequence (looked up): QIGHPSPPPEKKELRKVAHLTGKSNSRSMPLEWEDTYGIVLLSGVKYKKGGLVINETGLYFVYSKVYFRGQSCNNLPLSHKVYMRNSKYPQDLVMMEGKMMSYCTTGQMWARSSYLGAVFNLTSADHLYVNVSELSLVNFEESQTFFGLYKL

[5] = biological target: T5, FLAG-tagged soluble form of TNF-gamma-beta (aa 72-251) (human, UniProt O95150 72-251); experiment: coimmunoprecipitation with protein A-Sepharose, anti-Flag western blot
T5 construct: also called FLAG-TL1β; FLAG-TNF-gamma-beta
T5 sequence (looked up): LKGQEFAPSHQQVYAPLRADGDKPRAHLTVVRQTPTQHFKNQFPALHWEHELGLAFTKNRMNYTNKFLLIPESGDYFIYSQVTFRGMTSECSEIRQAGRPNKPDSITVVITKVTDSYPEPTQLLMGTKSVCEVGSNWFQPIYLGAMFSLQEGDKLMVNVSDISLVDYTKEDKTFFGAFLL
Text: The beads were then precipitated and washed extensively with PBST buffer (PBS, 0.5% Triton X-100) before boiled in SDS-sample buffer. Proteins were resolved on 4-20% Tris-Glycine gels (NOVEX), transferred to nitrocellulose membranes, and blotted with anti-Flag M2 monoclonal antibody (1 microgram/ml, Sigma) and horseradish peroxidase (HRP)-conjugated goat anti-mouse IgG antibody (0.5 microgram/ml).

[6] = biological target: T4, Soluble human FLAG-FasL (synthesized at …); experiment: BIAcore, trimerized FLAG-FasL soluble

B1: Human Fas(M1-G169)-Fc fusion protein (Fc fusion, UniProt P25445 26-169, looked up, not shown: a dimerising Fc or GST)
chain: QVTDINSKGLELRKTVTTVETQNLEGLHHDGQFCHKPCPPGERKARDCTVNGDEPDCVPCQEGKEYTDKAHFSSKCRRCRLCDEGHGLEVEINCTRTQNTKCRCKPNFFCNSTVCEHCDPCTKCEHGIIKECTLTSNTKCKEEG
notes: range 1-169; From CHO cells; a disulfide-linked dimer; also called Fas-Fc; FasFc
binding result [1]: no binding | binding result [2]: no binding | IC50 of inhibition of killing of A20 target cells by murine FasL-transfected L929 cells [3]: ~0.1 µg/mL | cross-linked FLAG-FasL mediated HT-29 cell death; shift of the cytotoxicity curve [4]: ~10 fold | binding result [5]: no binding | Kd [6]: 7.4 nM
